Measured values reported in patent publication US20240343773A1 (AMIDEBIO, published 2024).
Ends that are not written are not given here.

Target: insulin receptor (IR) (UniProt P06213 28-1382)
Experiment: method not stated; in the absence of glucose

B1: SEQ ID NO: 5 (ligand)
chain: FVDQHLCGSHLVEALYLVCGERGFFYTPKTYDGKGIVEQCCTSICSLYQLENYCG
modifications: ends and bridges not checked; cysteine pairing not given here
notes: Single chain insulin analog (B chain-C'-A chain)
  Kd: 4.51 nM

B2: SEQ ID NO: 7 (ligand)
chain: FVGQHLCGSHLVEALYLVCGERGFFYTPKTYDGKGIVEQCCTSICSLYQLENYCG
modifications: ends and bridges not checked; cysteine pairing not given here
notes: as for B1
  Kd: 1.21 nM
